By Km is commonly meant the substrate concentration at which the rate is half of its maximum.

This data set has as its system MGLL. Briefly: Kinetic analysis: hydrolysis of 4-methyl coumarin butyrate (4MC-B) by MGLL constructs. In kind it is biochemical, human. The conditions noted are these: substrate 4MC-B; 4-5 nM MGLL, 20 mM Pipes pH 7, 150 mM NaCl, 37° C.; average of 2 or 4 separate assays. An excerpt:
A small fluorescent substrate, 4-methyl coumarin butyrate (4MC-B) was used to compare the activity of the engineered mutants to the activity of wt-MGLL (hMGLL 1-303) (SEQ ID NO: 3). The catalytic efficiency (kcat/KM) for the hydrolysis of the 4MC-B was similar for wt-MGLL (hMGLL 1-303) (SEQ ID NO: 3) and all MGLL mutants tested (Table 2). A larger more aliphatic fluorescent substrate, Coumarin Arachidonate (C-A), structurally more closely related to the MGLL natural substrate, 2-AG, was used to compare the activity of wt-MGLL (hMGLL 1-303) (SEQ ID NO: 3) to TEV cleaved mut-MGLL (hMGLL 1-303 L169S, L176S) (SEQ ID NO: 5).
The Michaelis-Menten parameters for the hydrolysis of 4-methylcoumarin butyrate (4MC-B) and coumarin arachidonate (C-A) substrate were determined using 4-5 nM of MGLL in 20 mM Pipes pH 7 and 150 mM NaCl at 37° C. The change in fluorescence due to substrate hydrolysis was monitored using excitation/emission wavelengths of 335/440 in a Safire II instrument from Tecan. The hyperbolic rates versus substrate concentration curves for the hydrolysis of 4MC-B were fit to the Michaelis-Menten equation using Excel.

B1: mut-MGLL 9-297, L169S, L176S: engineered form of human MGLL, cap mutations plus truncation (protein, UniProt Q99685 9-297, looked up, variant L169S L176S)
chain: RTPQSIPYQDLPHLVNADGQYLFCRYWKPTGTPKALIFVSHGAGEHSGRYEELARMLMGLDLLVFAHDHVGHGQSEGERMVVSDFHVFVRDVLQHVDSMQKDYPGLPVFLLGHSMGGAIAILTAAERPGHFAGMVLISPLVLANPESATTFKVLAAKVLNSVLPNLSSGPIDSSVLSRNKTEVDIYNSDPLICRAGLKVCFGIQLLNAVSRVERALPKLTVPFLLLQGSADRLCDSKGAYLLMELAKSQDKTLKIYEGAYHVLHKELPEVTNSVFHEINMWVSQRTATA
Turning to B1, the Kcat is 0.433 s⁻¹ and the Michaelis constant (Km) came out at 126 µM.

B2: mut-MGLL 1-303, L171Q: engineered form of human MGLL, cap mutation (protein)
chain: MVDHHHHHHENLYFQGMPEESSPRRTPQSIPYQDLPHLVNADGQYLFCRYWKPTGTPKALIFVSHGAGEHSGRYEELARMLMGLDLLVFAHDHVGHGQSEGERMVVSDFHVFVRDVLQHVDSMQKDYPGLPVFLLGHSMGGAIAILTAAERPGHFAGMVLISPLVLANPESATTFKVLAAKVLNLVQPNLSLGPIDSSVLSRNKTEVDIYNSDPLICRAGLKVCFGIQLLNAVSRVERALPKLTVPFLLLQGSADRLCDSKGAYLLMELAKSQDKTLKIYEGAYHVLHKELPEVTNSVFHEINMWVSQRTATAGTASPP
For B2, the Kcat stood at 0.85 s⁻¹ and the Michaelis-Menten constant (Km) came out at 105 µM.

B3: mut-MGLL 1-303, L169S, L176S, K36A: engineered human MGLL 1-303 L169S, L176S, K36A; SEQ ID NO: 6, SEQ ID NO: 7 after TEV cleavage (protein)
chain: MVDHHHHHHENLYFQGMPEESSPRRTPQSIPYQDLPHLVNADGQYLFCRYWAPTGTPKALIFVSHGAGEHSGRYEELARMLMGLDLLVFAHDHVGHGQSEGERMVVSDFHVFVRDVLQHVDSMQKDYPGLPVFLLGHSMGGAIAILTAAERPGHFAGMVLISPLVLANPESATTFKVLAAKVLNSVLPNLSSGPIDSSVLSRNKTEVDIYNSDPLICRAGLKVCFGIQLLNAVSRVERALPKLTVPFLLLQGSADRLCDSKGAYLLMELAKSQDKTLKIYEGAYHVLHKELPEVTNSVFHEINMWVSQRTATAGTASPP
modifications: His tag and TEV site; SEQ ID 7 after TEV cleavage; Human
As for B3, the Kcat stood at 0.85 s⁻¹ and the Km amounted to 124 µM.

B4: mut-MGLL 1-303, L169S, L176S, K226A: engineered form of human MGLL, cap plus surface mutations (protein)
chain: MVDHHHHHHENLYFQGMPEESSPRRTPQSIPYQDLPHLVNADGQYLFCRYWKPTGTPKALIFVSHGAGEHSGRYEELARMLMGLDLLVFAHDHVGHGQSEGERMVVSDFHVFVRDVLQHVDSMQKDYPGLPVFLLGHSMGGAIAILTAAERPGHFAGMVLISPLVLANPESATTFKVLAAKVLNSVLPNLSSGPIDSSVLSRNKTEVDIYNSDPLICRAGLKVCFGIQLLNAVSRVERALPALTVPFLLLQGSADRLCDSKGAYLLMELAKSQDKTLKIYEGAYHVLHKELPEVTNSVFHEINMWVSQRTATAGTASPP
For B4, the Kcat came out at 0.633 s⁻¹ and the Michaelis constant (Km) was 110 µM.

B5: mut-MGLL 1-303, L169S, L176S, K36A, K226A: engineered form of human MGLL, cap plus surface mutations (protein)
chain: MVDHHHHHHENLYFQGMPEESSPRRTPQSIPYQDLPHLVNADGQYLFCRYWAPTGTPKALIFVSHGAGEHSGRYEELARMLMGLDLLVFAHDHVGHGQSEGERMVVSDFHVFVRDVLQHVDSMQKDYPGLPVFLLGHSMGGAIAILTAAERPGHFAGMVLISPLVLANPESATTFKVLAAKVLNSVLPNLSSGPIDSSVLSRNKTEVDIYNSDPLICRAGLKVCFGIQLLNAVSRVERALPALTVPFLLLQGSADRLCDSKGAYLLMELAKSQDKTLKIYEGAYHVLHKELPEVTNSVFHEINMWVSQRTATAGTASPP
Take B5: the Kcat was found to be 0.5 s⁻¹ and the Michaelis constant (Km) is 123 µM.

B6: mut-MGLL 1-303, L171Q, L174Q: engineered form of human MGLL, cap mutations (protein)
chain: MVDHHHHHHENLYFQGMPEESSPRRTPQSIPYQDLPHLVNADGQYLFCRYWKPTGTPKALIFVSHGAGEHSGRYEELARMLMGLDLLVFAHDHVGHGQSEGERMVVSDFHVFVRDVLQHVDSMQKDYPGLPVFLLGHSMGGAIAILTAAERPGHFAGMVLISPLVLANPESATTFKVLAAKVLNLVQPNQSLGPIDSSVLSRNKTEVDIYNSDPLICRAGLKVCFGIQLLNAVSRVERALPKLTVPFLLLQGSADRLCDSKGAYLLMELAKSQDKTLKIYEGAYHVLHKELPEVTNSVFHEINMWVSQRTATAGTASPP
B6: the Kcat is 0.783 s⁻¹ and the Michaelis-Menten constant (Km) is 89 µM.

B7: mut-MGLL. 1-303, L167Q, L174Q: engineered form of human MGLL, cap mutations (protein)
chain: MVDHHHHHHENLYFQGMPEESSPRRTPQSIPYQDLPHLVNADGQYLFCRYWKPTGTPKALIFVSHGAGEHSGRYEELARMLMGLDLLVFAHDHVGHGQSEGERMVVSDFHVFVRDVLQHVDSMQKDYPGLPVFLLGHSMGGAIAILTAAERPGHFAGMVLISPLVLANPESATTFKVLAAKVQNLVLPNQSLGPIDSSVLSRNKTEVDIYNSDPLICRAGLKVCFGIQLLNAVSRVERALPKLTVPFLLLQGSADRLCDSKGAYLLMELAKSQDKTLKIYEGAYHVLHKELPEVTNSVFHEINMWVSQRTATAGTASPP
As to B7, the Kcat was 1.17 s⁻¹ and the Km was 84 µM.

B8: mut-MGLL. 1-303, L169S, L176S, K160A: engineered form of human MGLL, cap plus surface mutations (protein)
chain: MVDHHHHHHENLYFQGMPEESSPRRTPQSIPYQDLPHLVNADGQYLFCRYWKPTGTPKALIFVSHGAGEHSGRYEELARMLMGLDLLVFAHDHVGHGQSEGERMVVSDFHVFVRDVLQHVDSMQKDYPGLPVFLLGHSMGGAIAILTAAERPGHFAGMVLISPLVLANPESATTFAVLAAKVLNSVLPNLSSGPIDSSVLSRNKTEVDIYNSDPLICRAGLKVCFGIQLLNAVSRVERALPKLTVPFLLLQGSADRLCDSKGAYLLMELAKSQDKTLKIYEGAYHVLHKELPEVTNSVFHEINMWVSQRTATAGTASPP
With B8, the Kcat came out at 0.5 s⁻¹ and the Km stood at 90 µM.

B9: mut-MGLL. 1-303, L169S, L176S, K165A: engineered form of human MGLL, cap plus surface mutations (protein)
chain: MVDHHHHHHENLYFQGMPEESSPRRTPQSIPYQDLPHLVNADGQYLFCRYWKPTGTPKALIFVSHGAGEHSGRYEELARMLMGLDLLVFAHDHVGHGQSEGERMVVSDFHVFVRDVLQHVDSMQKDYPGLPVFLLGHSMGGAIAILTAAERPGHFAGMVLISPLVLANPESATTFKVLAAAVLNSVLPNLSSGPIDSSVLSRNKTEVDIYNSDPLICRAGLKVCFGIQLLNAVSRVERALPKLTVPFLLLQGSADRLCDSKGAYLLMELAKSQDKTLKIYEGAYHVLHKELPEVTNSVFHEINMWVSQRTATAGTASPP
In the case of B9, the Kcat is 0.45 s⁻¹ and the Michaelis-Menten constant (Km) was determined as 137 µM.

B10: mut-MGLL 1-303, L167Q, L171Q: engineered form of human MGLL, cap mutations (protein)
chain: MVDHHHHHHENLYFQGMPEESSPRRTPQSIPYQDLPHLVNADGQYLFCRYWKPTGTPKALIFVSHGAGEHSGRYEELARMLMGLDLLVFAHDHVGHGQSEGERMVVSDFHVFVRDVLQHVDSMQKDYPGLPVFLLGHSMGGAIAILTAAERPGHFAGMVLISPLVLANPESATTFKVLAAKVQNLVQPNLSLGPIDSSVLSRNKTEVDIYNSDPLICRAGLKVCFGIQLLNAVSRVERALPKLTVPFLLLQGSADRLCDSKGAYLLMELAKSQDKTLKIYEGAYHVLHKELPEVTNSVFHEINMWVSQRTATAGTASPP
As for B10, the Kcat is 0.983 s⁻¹ and the Km was 84 µM.

B11: mut-MGLL 9-303, L169S, L176S: engineered form of human MGLL, cap mutations plus truncation (protein, UniProt Q99685 9-303, looked up, variant L169S L176S)
chain: RTPQSIPYQDLPHLVNADGQYLFCRYWKPTGTPKALIFVSHGAGEHSGRYEELARMLMGLDLLVFAHDHVGHGQSEGERMVVSDFHVFVRDVLQHVDSMQKDYPGLPVFLLGHSMGGAIAILTAAERPGHFAGMVLISPLVLANPESATTFKVLAAKVLNSVLPNLSSGPIDSSVLSRNKTEVDIYNSDPLICRAGLKVCFGIQLLNAVSRVERALPKLTVPFLLLQGSADRLCDSKGAYLLMELAKSQDKTLKIYEGAYHVLHKELPEVTNSVFHEINMWVSQRTATAGTASPP
Take B11: the Kcat stood at 0.45 s⁻¹ and the Km is 88 µM.

These data come from patent US8257698B2, “Protein engineering of monoacylglycerol lipase (MGLL)” (Janssen Pharmaceutica N.V., priority 2008, dated 2012).
